Measurements as given in US20020147326A1, “Hexameric fusion proteins and uses therefor” (SmithKline Beecham Corporation, priority 1996, published 2002).
“Also recorded” adds a separate entry of the source.

Columns and labels:
[1] = biological target: T1, biotinylated CD80-Igαtp binding to immobilized CD28-Ig (Homo sapiens, UniProt P10747); test: Competition ELISA of biotinylated CD80-Igαtp binding to immobilized CD28-Ig; settings: competitor added simultaneously; wells coated with CD28-Ig
T1 construct: native leader and extracellular domain peptide of CD28 and CD80 were grafted onto a human IgG1 heavy chain Fc region; human IgG1 Fc (hinge/CH2/CH3); made in house; host or cells: CHO cells
Method: The wells of 96 well microtiter plates (Immunlon 4, Dynatech Laboratories) were coated with CD28-Ig (1, 2, or4 μg/ml) in 100 μl/well of 0.1 M sodium bicarbonate, pH 9.4 and incubated overnite @4° C. The wells were washed with PBS (phosphate buffered saline) and blocked with 0.5% gelatin in PBS for 1 hour. Following an additional PBS wash, biotinylated CD80-Igαtp was serially diluted in PBS containing 1 mg/ml BSA, 0.05% Tween directly in the wells in a final volume of 0.1 ml and incubated for 1 hour. The wells were washed with PBS and bound CD80-Igαtp protein was measured by the addition of 0.1 ml of strepavidin-HRP (streptavidin conjugated with horseradish peroxidase (Southern Biotech)) at a 1:2000 dilution for 1 hour, followed by washing and color development with 100 μl ABTS substrate (Kierkegaard and Perry Laboratories Inc., Maryland) and measurement of absorbance at 405 nm. In some cases the color reactions were arrested by addition of 100 μl of 1% SDS prior to measurement of absorbance. In this figure, “CD28-Fc”, “CTLA4-Fc”, and “B7-FcA” denote CD28-Ig, CTLA4-Ig, and CD80-Igαtp, respectively.

[2] = tested on: murine T-cell hybridoma cell lines expressing human CD28 (PCD28.1.s2.1, DCL27CD28wt.s2); test: IL-2 production by CD28 T-cell hybridomas (CTLL-2 bioassay); type: cell-based; settings: addition of CTLA4-Ig
Source text: The CD80- and CD86-Igαtp proteins were compared to the corresponding CD80 and CD86-Ig proteins to determine their ability to stimulate cells expressing human CD28 using two murine T-cell hybridoma cell lines expressing human CD28, PCD28.1.s2.1 and DCL27CD28wt.s2. The PCD28.1.s2.1 cell line was described in Example 1, part 3. The DCL27CD28wt.s2 cell line was created by transfection of the DC27 cell line [F. Pages et al., Nature, 369:327-329 (1994); F. Pages et al., J. Biol. Chem., 271(16):9403-9409 (1996)] with the same CD28 expression vector used for the PCD28.1.s2.1 cells [D. Couez et al., Molecular Immunology, 31:47-57 (1994)]. These cell lines were examined for their ability to produce IL-2 in response to activation with CD80- and CD86-Ig in comparison with the corresponding Igαtp fusion proteins. 96-well plates were coated with or without a CD3 antibody together with the CD80 and CD86 fusion proteins. This was accomplished by first incubating the plates with a previously determined suboptimal concentration of hamster […] CD3 antibody (MAb 145-2C11, Boerhinger-Mannheim Biochemicals) for two hours at room temperature (RT) or with just buffer alone, washing the plates with PBS, adding goat anti-human Ig heavy chain (GAH-IgHc, Sigma Chemical Co.) for an additional two hours at RT, washing again and coating with different concentrations of the CD80 or CD86 fusion protein for 16-18 hours at 4° C., washing again, and finally blocking for 30 min. with 0.2% BSA-PBS. T cells (1×10^5/well) were added in 150 μl medium into duplicate wells. For comparison, the soluble fusion proteins and the 248.23.2 CD28 MAb (IgM) [A. Morretta, University of Genova, Italy] were added to non-coated wells. T cells were incubated in the wells for 24 hours at 37° C., and supernatants were collected and evaluated for IL-2 levels in a standard CTLL-2 bioassay [S. M. Gillis et al., J. Immunol., 120:2027 (1978)]. Briefly, 1×10^4 IL-2 dependent CTLL-2 cells (ATCC)/well in 75 μl medium were added to an equal volume of test supernatant and incubated for 24 hours at 37° C. The cells were pulsed with 10 μl of 5 mg/ml MTT (Sigma Chemical Co.) for 4 hours, and lysed with […] 10% SDS/0.01N HCl solution for 14-16 hours. OD570 readings were converted into ng/ml of IL-2 based on a standard curve generated by treating cells with known concentrations of IL-2.
IL-2 promoter activity and IL-2 levels were measured similarly to that described in parts A and B above, except that proliferation of the reader CTLL-2 cells was measured by ^3H-thymidine incorporation.

CTLA4-Ig: binding protein/Fc construct for human CTLA4 with human IgG1 Fc
inhibition of biotinylated CD80-Igαtp binding to immobilized CD28-Ig [1]: inhibited; also recorded: blocked the binding sites on CD80-Igαtp
blockade of the response to CD80- and CD86-Igαtp [2]: complete blockade
